Results as given in the nanobody polyreactivity screen of Harvey et al. (2022).

test: yeast display, Sf9 membrane polyspecificity reagent, FACS + sequencing; frameworks hold sequencing errors
How it was run: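 Using colony PCR, genes from sorted yeast display clones were amplified, then sequenced on MiSeq at 2 × 250 and filtered by CDR length. The clones had been stained with 10% biotinylated, detergent-solubilized Sf9 membrane reagent for 1 hour at 4 °C and sorted by FACS into low and high (top ~1%) gates on anti-HA and streptavidin fluorescence. Polyreactivity labels come from the gate of origin.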

Row | Sequence | polyreactivity (PSR sort gate)
1 | QVQLVESGGGLVQAGGSLRLSCAASGSIFYQYAMGWNRQAPGKERELVAVINRSGSSTYYADSVKGRFTISRDNAKNTVYLQMNSLKPEDNAVYYCAAASKYSEYNYWGQGTEVTVSS | high polyreactivity
2 | QVQLVESGGGLVQAGGSLRLSCAASGSIFYQYAMGWYRQAPGKEREFVAAITRRGTSTYYADSVKGRFTISRDIAKNTVYLQMNSLKPEDTAVYYCAARYGPNMDYWGQGTQVTVSS | high polyreactivity
3 | QVQLVESGGGLVQAGGSLRLSCAASGSIFYRNALGWYRQAPGKERELVAAISSDGSTNYADSVKGRFTISRDNAKNTVYLQLNSLKPEDTAVYYCAAPWTQILDYWGQGTQVTVSS | low polyreactivity
4 | QVQLVESGGGLVQAGGSLRLSCAASGSIFYRNAMGCYIQAPGKERELVAAITSSGVSTYYADSVKGRFTISRDNAKNTVYLQMNSLKPEDTAVYYCAARSVYTGRPYYYWGQGTQVTVSS | high polyreactivity
5 | QVQLVESGGGLVQAGGSLRLSCAASGSIFYRNAMGWYRQAPGKERELVAAISASGGSTYYADSVKGRFTISRDNAKNTVYLQMNSLNPEDTAFYYCAVEYRKSRSYYPYYYWGQGTQVTVSS | high polyreactivity
6 | QVQLVESGGGLVQAGGSLRLSCAASGSIFYRNAMGWYRQAPGKERELVAAISSDGSTNYADSVKGRFTISRDNAKNTVYLQMNSLKPEDTAVYFCAAPWTQILDYWGQGTQVTVSS | low polyreactivity
7 | QVQLVESGGGLVQAGGSLRLSCAASGSIFYRNAMGWYRQAPGKERELVAAITSRGGRTYYADSVKGRFTISRDNAKNTVYLQMTSLKPEDTAVYYCAADYRYPAHSYGYWGQGTQVTVSS | high polyreactivity
8 | QVQLVESGGGLVQAGGSLRLSCAASGSIFYRNAMGWYRQAPGKERELVAAITWSGVNTYYADSVKGRFTISRDNAKNTVYLQMNSLKPEDTAVYYCAVPSRYWLNRGFDYWGQGTQVTVSS | low polyreactivity
9 | QVQLVESGGGLVQAGGSLRLSCAASGSIFYRYAMGGYRQAPGKERELVAAISSRGGSTYYADSVKGRFTISRDTAKNTVYLQMNSLKPEDTAVYYCNKDNHDLELPVEFEYWGQGTQVTVSS | high polyreactivity
10 | QVQLVESGGGLVQAGGSLRLSCAASGSIFYRYVMGWYRQAPGKERELVAAITSDGSTNYADSVKGRFTISRDNAKNTVYLQMNSLKPEDTAVYYCNARSYRGRFDYWGQGTQVTVSS | low polyreactivity
11 | QVQLVESGGGLVQAGGSLRLSCAASGSIFYSNAMGLSRQAPGKEREWVATITSGDSTNYADSVKGRFTISRDNAKNTVYLQMNSLKPEDTAVYYCAADSSLYEWFDWPWERGQSVESWGQGTQVTVSS | low polyreactivity
12 | QVQLVESGGGLVQAGGSLRLSCAASGSIFYSNAMGWYRQAPGKERQLVAAIDSGTSTNYADSVKGRFTISRDNAKNTVYLQMNSLKPEDTAVYYCARLLGPVRDKYDYDYWGQGTQVTVSS | low polyreactivity
13 | QVQLVESGGGLVQAGGSLRLSCAASGSIFYSYAMGGYRQAPGKERELVAAITDSGDSTYYADSVKGRFTISRDNAKNTVYLQMNSLKPEDTAVYYCAAGFYPYYYWGQGTQVTVSS | low polyreactivity
14 | QVQLVESGGGLVQAGGSLRLSCAASGSIFYSYAMGWYRHAPGKERELVAAISWDASTYYADSVKGRFTISRDNAKNTVYLQMNSLKPEDTAVYYCNADIPYYFVYDAYDFWGQGTQVTVSS | low polyreactivity
15 | QVQLVESGGGLVQAGGSLRLSCAASGSIFYSYAMGWYRQAPGKEREFVATITWSGGRTYYADSVKGRFTISRDNAKNTFYLQMNSLKPEDTAVYYCNKRLFPYKGDYWGQGTQVTVSS | low polyreactivity
16 | QVQLVESGGGLVQAGGSLRLSCAASGSIFYSYAMGWYRQAPGKERELVAAITDSGDDTYYADSVKGRFTISRDNAKNTVYLQMNSLKPEDSAVYYCAAEQIYYTSDSSYFVTYDDWGQGTQVSVSS | high polyreactivity
17 | QVQLVESGGGLVQAGGSLRLSCAASGSIFYTNAMGWYRPAPGKERELVAAIRTGGSTNYADSVKGRFTISRDNAKNTVYLQMNSLKPEDTAVYYCAAAYGYGHKKYGYWGQATQVTVSS | low polyreactivity
18 | QVQLVESGGGLVQAGGSLRLSCAASGSIFYTNAMGWYRQAPGKEMEFVASITYRGSNTYYADSVKGRFTISRDNAKTTVYLQMNSLKPEDTAVYYCGADSFYYRPEYDYWGLGTQVTVSS | low polyreactivity
19 | QVQLVESGGGLVQAGGSLRLSCAASGSIFYTNAMGWYRQAPGKERELVAAIRWSGGRTYYADSVKGRFTISRDNAKNTVYLQMNSLKPEDTAVYYCNKVPRTPIPYKYGYWGQGTQVTVSS | high polyreactivity
20 | QVQLVESGGGLVQAGGSLRLSCAASGSIFYTYAMGWYRQAPGKERELVAAISSGGSTNYADSVKGRFTISRDNPKNTVYLQMNSLKPEDTAVYYCAAEYTRSFYIYYRFGYWGQGTQVTVSS | high polyreactivity
21 | QVQLVESGGGLVQAGGSLRLSCAASGSIFYTYAMGWYRQAPGKERELVAAISSGGSTTYADSVKGRFTISRDNAKNTVYLQMKSLKPEDTAVYYCNTSYRKKKRYYYWGQGTQVTVSS | high polyreactivity
22 | QVQLVESGGGLVQAGGSLRLSCAASGSIFYVNAMGWYRQAPGKERELVAAINWSGGRTYYADSVKGRFTISRDTAKNTVYLQMNSLKPEDTAVYYCAATVRRRYERYNYWGQGTQVTVSS | high polyreactivity
23 | QVQLVESGGGLVQAGGSLRLSCAASGSIFYVNAMGWYRQAPGKERELVAAISVRGGRTYYADSVKGRFTISRDNAKNTVYLQMNSLKPEDTAVYYCAAKSVYKFGDDYWGQGTQVTVSS | high polyreactivity
24 | QVQLVESGGGLVQAGGSLRLSCAASGSIFYVNAMGWYRQAPGKERELVAVNADSVKGRFTISRDNAKNTVYLQMNSLKPEDTAVYYCAAGVNSTTRIYDYWGQGTQVTVSS | low polyreactivity
25 | QVQLVESGGGLVQAGGSLRLSCAASGSIFYVNAMGWYRQEPGKERELVAAISYRGGSTYYADSVKGRFTISRDNAKNTVYLQMNSLKPEDTSVYYCAKRLYGSYHSDYWGQGTQVTVSS | high polyreactivity
26 | QVQLVESGGGLVQAGGSLRLSCAASGSIFYVNTIGWYRQAPGKERELVAGITSRGGSTYYADSVKGRFTISRDNAKNTVYLQMNSLKPEDTAVYYCAKRAYGTALYRGYGYWGQGTQVTVSS | low polyreactivity
27 | QVQLVESGGGLVQAGGSLRLSCAASGSIFYVNTMGWYRQAPGKERELVAVIDYGGDSTYYADSVKGRFTISRDNAKNTVYLQMNSLKPEDTAVYYCAADAWLLPYNYWGQGTQVTVSS | low polyreactivity
28 | QVQLVESGGGLVQAGGSLRLSCAASGSIFYVYAMGWSRQAPGKERELVASITRRRTNYADSVKGRFTISRDTAKNTVYLQMNSLKPEDTAVYYCAATTYVRQYATYDYWGQGTQVTVSS | high polyreactivity
29 | QVQLVESGGGLVQAGGSLRLSCAASGSIFYWNAMGWYRQAPGKERELVAAINYSGDSTYYADSVKGRFTISRDNAKNTVYLQMNSLKPEDTEVYYCNFDYWGQGTQVTVSS | low polyreactivity
30 | QVQLVESGGGLVQAGGSLRLSCAASGSIFYWNAMGWYRQAPGKERELVAAISYNGGSTYYADSVKGRFTISRDNAKNTVYLQMNSLKPEDTAVYYCAADNYYYGYEYWGQGTQVTVSS | high polyreactivity
